Reference: patent publication US20250179176A1, “ANTI-TIGIT ANTIBODIES AND USES OF THE SAME” (ARCUS BIOSCIENCES, INC., priority 2022, published 2025)

Legend:
[1] = target: human FcγR3A (human) (UniProt P08637); experiment: ELISA, FcγR3A coated on plate, anti-human IgG HRP, chemiluminescence
[2] = target: Human TIGIT (human) (UniProt Q495A1); experiment: flow cytometry receptor occupancy on patients' whole blood, competitive anti-TIGIT antibody MBSA43 as detector, Q2W dosing
Sequence of Human TIGIT (human) (Q495A1 other isoform, or with tags, fused parts or gaps): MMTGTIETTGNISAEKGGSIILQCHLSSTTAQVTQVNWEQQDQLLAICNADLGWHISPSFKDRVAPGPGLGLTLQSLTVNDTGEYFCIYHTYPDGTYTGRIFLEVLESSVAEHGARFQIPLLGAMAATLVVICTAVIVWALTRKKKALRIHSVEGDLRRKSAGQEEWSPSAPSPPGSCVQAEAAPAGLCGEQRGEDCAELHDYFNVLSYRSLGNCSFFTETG

Sequence of human FcγR3A (human) (P08637 17-208 limits assumed): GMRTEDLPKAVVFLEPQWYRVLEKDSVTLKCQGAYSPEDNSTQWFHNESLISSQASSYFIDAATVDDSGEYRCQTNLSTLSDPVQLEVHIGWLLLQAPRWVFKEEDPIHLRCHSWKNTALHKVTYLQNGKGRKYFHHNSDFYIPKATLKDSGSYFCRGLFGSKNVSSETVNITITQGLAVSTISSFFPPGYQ

- percent of the binding of human IgG1 to the same receptor [1]: 20%
- receptor occupancy (RO) [2]: > 98%
Substance: domvanalimab (antibody)
